Test [1] deals with T1, human CD3e/g ECD-hFc recombinant protein (human, UniProt P07766 23-126; P09693 23-116).
T1 construct: extracellular domain; Bought from ChemPartner; not shown: human Fc
Description: Biacore, antigen coupled to a CM5 chip, PR003178 injected at 12-0.375 nM, 1:1 kinetic fit [E]. On the procedure:
(§1) Human BCMA-Fc, Avitag recombinant protein (ACRO, Cat. BC7-H82F0), cynomolgus monkey BCMA-Fc, Avitag (ACRO, Cat. BCA-C82F4) were purchased from ACRO, human CD3e/g ECD-hFc recombinant protein (Lot.20190508002), cynomolgus monkey CD3e/g ECD-hFc recombinant protein and human (Lot.2018040001) were purchased from ChemPartner.
(§2) The flow rate was set as 10 μl/min and four antigens were coupled on four channels on two CMS: 1) the injection time was set as 300 s, and 50 mM of NHS and 200 mM of EDC were freshly mixed at 1:1 volume ratio and injected into four channels; 2) human BCMA-Fc, Avitag recombinant protein, cynomolgus monkey BCMA-FC, Avitag, human CD3e/g ECD-hFc recombinant protein and cynomolgus CD3e/g ECD-hFc recombinant protein were all diluted to 1 μg/ml with sodium acetate (Cat# BR-1003-50) (pH 4.5), and injected into channel 2, 3 and 4 of chip 1 and channel 2 of chip 2, respectively; 3) 1 M of ethanolamine (pH8.5) was injected for 300 s to block the remaining active carboxyl groups on the chips surface. After blockage, the instrument was continued to be equilibrated with 1 ×HBS- EP+buffer for two hours. The final coupling amounts of human BCMA-Fc, Avitag recombinant protein, cynomolgus monkey BCMA-Fc, Avitag, human CD3e/g ECD-hFc recombinant protein and cynomolgus monkey CD3e/g ECD-hFc recombinant protein were 120 RU, 70 RU, 200 RU and 290 RU, respectively.
(§3) A multi-cycle kinetic mode was set, and each cycle included the binding of PRO03178 as well as the regeneration of the chip. PRO03178 with two-fold gradient dilution was injected into four channels at a flow rate of 30 μl/min. A binding time of 180 s and a dissociation time of 400 s or 600s were set. Finally, 10 mM of glycine-hydrochloric acid (pH 1.5) (GE Life Sciences, Cat# BR-1003-54) was injected at the same flow rate for 60 s to regenerate the chip.
On the technique in general: SPR reads the build-up and loss of mass on a sensor chip optically.

Test [2] has as its target T2, human BCMA-Fc, Avitag recombinant protein (ACRO, Cat. BC7-H82F0) (human, UniProt Q02223 1-54).
T2 construct: extracellular domain; Bought reagent; amine-coupled to the CM5 chip in the Biacore assay; also called recombinant human BCMA-ECD-Fc; human BCMA recombinant protein; not shown: Fc and Avitag of the bought protein
T2 sequence (looked up): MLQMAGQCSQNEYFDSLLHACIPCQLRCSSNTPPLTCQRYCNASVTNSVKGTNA
The description is as above. On the procedure: as §1, §2, §3

Test [3] concerns the target T3, cynomolgus monkey BCMA-Fc, Avitag (ACRO, Cat. BCA-C82F4) (cynomolgus monkey, UniProt A0A2K5UD97 1-53).
T3 construct: Bought reagent; amine-coupled to the CM5 chip; also called cynomolgus monkey BCMA recombinant protein; not shown: Fc and Avitag of the bought protein
Description: Biacore, antigen coupled to a CM5 chip, PR003178 injected at 6-0.1875 nM, 1:1 kinetic fit [E]. The protocol:
as §1, §2, §3

By koff is commonly meant a measure of how fast the partners let go of each other. A word on the kon: it is a measure of how fast the partners come together. As a reminder, the Kd is a measure of binding affinity in units of concentration.

T3 sequence (A0A2K5UD97 entry or part of it): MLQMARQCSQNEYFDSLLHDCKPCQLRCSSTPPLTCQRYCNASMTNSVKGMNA
T1 sequence (P07766 23-126, chain 1 of 2): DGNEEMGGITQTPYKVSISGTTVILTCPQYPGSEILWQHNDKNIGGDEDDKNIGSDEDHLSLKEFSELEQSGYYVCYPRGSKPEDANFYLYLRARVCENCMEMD
T1 sequence (P09693 23-116, chain 2 of 2): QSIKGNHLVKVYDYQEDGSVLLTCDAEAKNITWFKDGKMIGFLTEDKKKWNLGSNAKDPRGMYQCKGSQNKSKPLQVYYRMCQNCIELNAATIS

B1: BCMA x CD3 bispecific antibody PR003178 (bispecific antibody, human IgG1, lambda, L234A L235A)
heavy 1: not shown
light: QAVVTQEPSLTVSPGGTVTLTCRSSTGAVTTSNYANWVQQKPGQAPRGLIGGTNKRAPWTPARFSGSLLGDKAALTLLGAQPEDEAEYFCALWYSNLWVFGGGTKLTVLGQPKAAPSVTLFPPSSEELQANKATLVCLISDFYPGAVTVAWKADSSPVKAGVETTTPSKQSNNKYAASSYLSLTPEQWKSHRSYSCQVTHEGSTVEKTVAPTECS
heavy 2: EVQLVETGGGLIQPGGSLRLSCAASGFTVSDNYMTWVRQAPGKGLEWVSVIFSGGNTYYADSVKGRFTISRDNAKNTLYLQMNSLRAEDTALYYCARRNYDDTRGTDVFDIWGQGTMVTVSSGGGGSGGGGSGGGGSEVQLVETGGGLIQPGGSLRLSCAASGFTVSDNYMTWVRQAPGKGLEWVSVIFSGGNTYYADSVKGRFTISRDNAKNTLYLQMNSLRAEDTALYYCARRNYDDTRGTDVFDIWGQGTMVTVSSASEPKSSDKTHTCPPCPAPEAAGGPSVFLFPPKPKDTLMISRTPEVTCVVVDVSHEDPEVKFNWYVDGVEVHNAKTKPREEQYNSTYRVVSVLTVLHQDWLNGKEYKCKVSNKALPAPIEKTISKAKGQPREPQVCTLPPSREEMTKNQVSLSCAVKGFYPSDIAVEWESNGQPENNYKTTPPVLDSDGSFFLVSKLTVDKSRWQQGNVFSCSVMHEALHNHYTQKSLSLSPGK
notes: Three chains: HC1 (anti-CD3 heavy, knob, LALA), LC (anti-CD3 lambda light), HC2 (two tandem anti-BCMA VH of PR001046 joined by (G4S)3, then Fc hole, LALA); also called PRO03178
As for B1, in test [1], the koff is 0.0149 s⁻¹ and the kon is 588000 M⁻¹ s⁻¹. For the same molecule, in test [2], the koff was determined as 0.000167 s⁻¹ and the kon came to 1.76e+06 M⁻¹ s⁻¹. Further, in test [3], the Kd was 0.147 nM, the koff was 0.000285 s⁻¹ and the kon was 1.94e+06 M⁻¹ s⁻¹.

The values are drawn from patent publication US20220340673A1 (HARBOUR BIOMED SUZHOU, published 2022).
